Results as given in US20230279105A1 (SINGLE CELL TECHNOLOGY, published 2023).

B1: SCT-Fa012 (antibody, V domains shown)
VH: EVKLVESEGGLVQPGSSMKLSCTASGFTFSDYYMAWVRQVPEKGLEWVAHINFDGSGTYYLDSLKSRFIISRDNAKNILYLQLSSLKSEDTATYYCARLYDGSHDYWGQGTTLTVSS
VL: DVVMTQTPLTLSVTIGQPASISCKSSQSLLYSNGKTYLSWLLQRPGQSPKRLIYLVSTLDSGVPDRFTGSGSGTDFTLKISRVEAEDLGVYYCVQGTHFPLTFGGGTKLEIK
notes: murine IgG
B2: SCT-Fa013 (antibody, V domains shown)
VH: EVKLVESEGGLVQPGSSMKLSCTASGFTFSDYYMAWVRQVPEKGLEWVAHINFDGSGTYYLDSLKSRFIISRDNAKNILYLQLSSLKSEDTGTYYCARLYDGSHDYWGQGTTLTVSS
VL: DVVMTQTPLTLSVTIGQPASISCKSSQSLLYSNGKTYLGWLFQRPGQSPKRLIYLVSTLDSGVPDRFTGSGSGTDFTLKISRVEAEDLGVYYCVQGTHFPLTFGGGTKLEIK
notes: murine IgG
B3: SCT-Fa017 (antibody, V domains shown)
VH: EVKLVESEGGLVQPGSSMKLSCTASGFTFSDYYMAWVRQVPEKGLEWVANINFDGSGTYYLDSLKSRFIISRDNAKNILYLQMSSLKSEDTATYYCARLYDGSHDYWGQGTTLTVSS
VL: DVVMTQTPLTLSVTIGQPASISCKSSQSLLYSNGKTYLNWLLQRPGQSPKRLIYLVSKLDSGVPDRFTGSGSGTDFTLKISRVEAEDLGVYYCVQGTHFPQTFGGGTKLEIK
notes: murine IgG
B4: SCT-Fa011 (antibody, V domains shown)
VH: EVKLVESEGGLVQPGSSMKLSCTASGFTFSDYYMAWVRQVPEKGLEWVAHINFDGSGTYYLDSLKSRFIISRDNAKNILYLQLSSLKSEDTATYYCARLYDGSHDYWGQGTTLTVSS
VL: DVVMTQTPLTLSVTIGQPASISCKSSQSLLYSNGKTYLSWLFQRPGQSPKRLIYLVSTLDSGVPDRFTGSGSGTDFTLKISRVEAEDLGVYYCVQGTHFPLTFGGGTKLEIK
notes: murine IgG
B5: SCT-Fa016 (antibody, V domains shown)
VH: EVKLVESEGGLVQPGSSMKLSCTASGFTFSDYYMAWVRQVPEKGLEWVAHINFDGSGTYYLDSLKSRFIISRDNTKNILYLQLSSLKSEDTATYYCARLYDGSHDYWGQGTTLTVSS
VL: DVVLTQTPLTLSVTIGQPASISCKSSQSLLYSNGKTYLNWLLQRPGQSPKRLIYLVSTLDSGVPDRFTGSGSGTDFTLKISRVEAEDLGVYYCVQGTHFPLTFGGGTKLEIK
notes: murine IgG
B6: SCT-Fa015 (antibody, V domains shown)
VH: EVKLVESEGGLVQPGSSMKLSCTASGFTFSDYYMAWVRQVPEKGLEWVAHINFDGSGTYYLDSLKSRFIISRDNEKSILYLQLSSLKSEDTATYYCARLYDGSHDYWGQGTTLTVSS
VL: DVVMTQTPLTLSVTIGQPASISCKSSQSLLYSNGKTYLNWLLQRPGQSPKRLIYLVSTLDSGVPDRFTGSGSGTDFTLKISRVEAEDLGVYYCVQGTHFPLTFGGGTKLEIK
notes: murine IgG
B7: SCT-Fa014 (antibody, V domains shown)
VH: EVKLVESEGGLVQPGSSMKLSCTASGFTFSDYYMAWVRQVPEKGLEWVAHINFDGSGTYYLDSLKSRFIISRDNAKNILYLQLSSLKSEDTGTYYCARLYDGSHDYWGQGTTLTVSS
VL: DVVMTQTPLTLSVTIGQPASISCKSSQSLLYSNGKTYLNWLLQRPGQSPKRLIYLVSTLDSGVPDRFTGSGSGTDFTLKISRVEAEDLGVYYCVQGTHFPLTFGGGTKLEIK
notes: murine IgG
B8: SCT-Fa019 (antibody, V domains shown)
VH: EVKLVESEGGLVQPGSSMKLSCTASGFTFSDYYMSWVRQVPEKGLEWVANINFDGSGTYYLDSLKSRFIISRDNAKNILYLQMSSLRSEDTATYYCARLYDGSHDYWGQGSALTVSS
VL: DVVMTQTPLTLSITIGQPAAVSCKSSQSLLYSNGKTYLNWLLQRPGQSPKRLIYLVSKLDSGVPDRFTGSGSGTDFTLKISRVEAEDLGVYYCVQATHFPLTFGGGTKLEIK
notes: murine IgG
B9: SCT-Fa010 (antibody, V domains shown)
VH: EVKLVESEGGLVQPGSSMKLSCTASGFTFSDYYMAWVRQVPEKGLEWIANINFDGSGTYYLDSLKSRFIISRDNAKNILYLQMSSLKSEDTATYYCARLYDGSLDYWGQGTTLTVSS
VL: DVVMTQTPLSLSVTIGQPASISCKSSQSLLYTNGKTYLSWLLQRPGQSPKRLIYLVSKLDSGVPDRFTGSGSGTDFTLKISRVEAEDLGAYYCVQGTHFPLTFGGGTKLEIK
notes: murine IgG
B10: SCT-Fa107 (antibody, V domains shown)
VH: QVQLKQSGAELVRPGTSVKLSCKASGYTLTDYYINWVKQRPGQGLEWIARIYPGNGNTYYNEKFKGKATLTAEKSSSTVNMQVSSLTSEDSAVYFCARGGSSDRIYYYAMDYWGQGTSVTVSS
VL: DIQMNQSPSSLSASLGDTITITCHASQNINVWLSWYQQKPGNIPKLLIYKASNLHTGVPSRFSGSGSGTGFTLTISSLQPEDIATYYCQQGQSYPLTFGSGTKLEIK
notes: murine IgG
B11: SCT-Fa098 (antibody, V domains shown)
VH: QVQLKQSGAELVRPGTSVKLSCKASGYILTDYYINWVKQRPGQGLEWIARIYPGNGNTYYNEKFKGKATLTAEKSSSTVNMQVSSLTSEDSAVYFCARGGSSDRIYYYAMDYWGQGTSVTVSS
VL: DIQMNQSPSSLSASLGDTITITCHASQNINVWLSWYQQKPGNIPKLLIYKASNLHTGVPSRFSGSGSGTGFTLAISSLQPEDIATYYCQQGQSYPLTFGSGTKLALK
notes: murine IgG
B12: SCT-Fa100 (antibody, V domains shown)
VH: QVQLKQSGAELVRPGTSVKLSCKASGYTLIDYYINWVKQRPGQGLEWIARIYPGNGNTYYNEKFKGKATLTAEKSSSTVNMQVSSLTSEDSAVYFCARGGSSDRIYYFAMDYWGQGTSVTVSS
VL: DIQMNQSPSSLSASLGDTITITCHASQNINVWLSWYQQKPGNIPKLLIYKASNLHTGVPSRFSGSGSGTGFTLTISSLQPEDIATYYCQQGQSYPLTFGSGTKLEIK
notes: murine IgG
B13: SCT-Fa109 (antibody, V domains shown)
VH: QVQLKQSGAELVRPGTSVKLSCKASGYTLTDYYINWVKQRPGQGLEWIARIYPGNGNTYYNEKFKGKATLTAEKSSSTVNMQVTSLTSEDSAIYFCARGGSSDRIYYYAMDYWGQVTSVTVSS
VL: DIQMNQSPSSLSASLGDTITITCHASQNINVWLSWYQQKPGNIPKLLIYKASNLHTGVPSRFSGSGSGTGFTLTISSLQPEDIATYYCQQGQSYPLTFGSGTKLEVK
notes: murine IgG
B14: SCT-Fa102 (antibody, V domains shown)
VH: QVQLKQSGAELVRPGTSVKLSCKASGYTLNDYYINWVKQRPGQGLEWIARIYPGNNNTYYNEKFKGKATLTAEKSSNTAYMQVSSLTSEDSAVYFCARGGSSVRVYYYAMDYWGQGTSVTVSS
VL: DIQMNQSPSSLSASLGDTITITCHASQNINVWLSWYQQKPGNIPKLLIYKASNLHTGVPSRFSGSGSGTGFTLTISSLQPEDIATYYCQQGQSYPLTFGSGTKLEIK
notes: murine IgG
B15: SCT-Fa110 (antibody, V domains shown)
VH: QVQLKQSGAELVRPGTSVRLSCKASGYTLTDYYINWVKQRPGQGLEWIARIYPGNGNTYYNEKFKGKATLTAEKSSSTVNMQVTSLTSEDSAVYFCARGGSSDRIYYYAMDYWGQGTSVTVSS
VL: DIQMNQSPSSLSASLGDTITITCHASQNINVWLSWYQQKPGNIPKLLIYKASNLHTGVPSRFSGSGSGTGFTLTISSLQPEDIATYYCQQGQSYPLTFGSGTKLEIK
notes: murine IgG
B16: SCT-Fa101 (antibody, V domains shown)
VH: QVQLKQSGAELVRPGTSVKLSCKASGYTLIDYYINWVKQRPGQGLEWIARIYPGNGNTYYNEKFKGKATLTAEKSSSTVNMQVSSLTSEDSAVYFCARGGSSDRIYYYAMDYWGQGTSVTVSS
VL: DIQMNQSPSSLSASLGDTITITCHASQNINVWLSWYQQKPGNIPKLLIYKASNLHTGVPSRFSGSGSGTGFTLTISSLQPEDIATYYCQQGQSYPLTFGSGTKLEIK
notes: murine IgG
B17: SCT-Fa093 (antibody, V domains shown)
VH: QVHLKQSGAELVRPGTSVKLSCKASGYTLTDYYINWVKQRPGQGLEWIARIYPGNGNTYYNEKFKGKATLTAEKSSSTVNMQVSSLTSEDSAVYFCARGGSSDRIYYYAMDYWGQGTSVTVSS
VL: DIQMNQSPSSLSASLGDTITITCHASQNINVWLSWYQQKPGNIPKLLIYKASNLHTGVPSRFSGSGSGTGFTLTISSLQPEDIATYYCQQGQSYPLTFGSGTKLEIK
notes: murine IgG
B18: SCT-Fa105 (antibody, V domains shown)
VH: QVQLKQSGAELVRPGTSVKLSCKASGYTLTDYYINWVKQRPGQGLEWIARIYPGNGNTYYNEKFKGKATLTAEKSSNTVNMQVSSLTSEDSAVYFCARGGSSDRIYYYAMDYWGQGTSVTVSS
VL: DIQMNQSPSSLSASLGDTITITCHASQNINVWLSWYQQKPGDIPKLLIYKASNLHTGVPSRFSGSGSGTGFTLTISSLQPEDIATYYCQQGQSYPLTFGSGTKLEIK
notes: murine IgG
B19: SCT-Fa099 (antibody, V domains shown)
VH: QVQLKQSGAELVRPGTSVKLSCKASGYILTDYYINWVKQRPGQGLEWIARIYPGNGNTYYNEKFKGKATLTAEKSSSTVNMQVSSLTSEDSAVYFCARGGSSDRIYYYAMDYWGQGTSVTVSS
VL: DIQMNQSPSSLSASLGDTITITCHASQNINVWLSWYQQKPGNIPKLLIYKASNLHTGVPSRFSGSGSGTGFTLTISSLQPEDIATYYCQQGQSYPLTFGSGTKLEIK
notes: murine IgG
B20: SCT-Fa104 (antibody, V domains shown)
VH: QVQLKQSGAELVRPGTSVKLSCKASGYTLTDYYINWVKQRPGQGLEWIARIYPGNGNTYYNEKFKCKATLTAEKSSSTVNMQVTSLTSEDSAIYFCARGGSSDRIYYYAMDYWGQGTSVTVSS
VL: DIQMNQSPSSLSASLGDTITITCHASQNINVWLSWYQQKPGNIPKLLIYKASNLHTGVPSRFSGSGSGTGFTLTISSLQPEDIATYYCQQGQSYPLTFGSGTKLEVK
notes: murine IgG
B21: SCT-Fa106 (antibody, V domains shown)
VH: QVQLKQSGAELVRPGTSVKLSCKASGYTLTDYYINWVKQRPGQGLEWIARIYPGNGNTYYNEKFKGKATLTAEKSSSTAYMQVSSLTSEDSAVYFCARGGSSVRVYYYAMDYWGQGTSVTVSS
VL: DIQMNQSPSSLSASLGDTITITCHASQNINVWLSWYQQKPGNIPKLLIYKASNLHTGVTSRFSGSGSGTGFTLTISSLQPEDIATYYCQQGQSYPLTFGSGTKLEIK
notes: murine IgG
B22: SCT-Fa097 (antibody, V domains shown)
VH: QVQLKQSGAELVRPGTSVKLSCKASGYILTDYYINWVKQRPGQGLEWIARIYPGNGNTYYNEKFKGKATLTAEKSSSTVNMQVSSLTSEDSAVYFCARGGSSDRIYYYAMDHWGQGTSVTVSS
VL: DIQMNQSPSSLSASLGDTINITCHASQNINVWLSWYQQKPGNIPKLLIYKASNLHTGVPLRFSGSGSGTGFTLTISSLQPEDIATYYCQQGQSYPLTFGSGTKLEIK
notes: murine IgG
B23: SCT-Fa103 (antibody, V domains shown)
VH: QVQLKQSGAELVRPGTSVKLSCKASGYTLTDYYINWVKQRPGQGLEWIARIYPGNGNTLYNAKFEGKATLTAERSSSTAYMQVSSLTSEDSAVYFCARGGSSVRVYYYAMDFWGQGTSVTVSS
VL: DIQMNQSPSSLSASLGDTITITCHASQNINVWLSWYQQKPGNIPKLLIYKASNLHTGVPSRFSGSGSGTGFTLTISSLQPEDIATYYCQQGQSYPLTFGSGTKLEIK
notes: murine IgG
B24: SCT-Fa108 (antibody, V domains shown)
VH: QVQLKQSGAELVRPGTSVKLSCKASGYTLTDYYINWVKQRPGQGLEWIARIYPGNGNTYYNEKFKGKATLTAEKSSSTVNMQVTSLTSEDSAIYFCARGGSSDRIYYYAMDYWGQGTSVTVSS
VL: DIQMNQSPSSLSASLGDTITITCHASQNINVWLSWYQQKPGNIPKLLIYKASNLHTGVPSRFSGSGSGTGFTLTISSLQPEDIATYYCQQGQSYPLTFGSGTKLEVK
notes: murine IgG

The binders below were run against T1, Human TIM-3 Human Fc tagged protein (human, fluorescently labeled with HiLyte Fluor 555 (sites not given)) (assay: capture slide probed with labeled TIM-3-Fc;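 further: IgG from single CD138-enriched plasma cells, isolated from lymphocytes, immobilized on a derivatized glass slide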).
T1 construct: Bought construct; also called TIM-3 protein tagged with human Fc; ACROBiosystems catalog no: TM3-H5258

Binding result, binds:
B1
B2
B3
B4
B5
B6
B7
B8
B9
B10
B11
B12
B13
B14
B15
B16
B17
B18
B19
B20
B21
B22
B23
B24
